# Data taken from IntAct's records for PubMed 22466964.
# B1: Cullin-2 (Homo sapiens), Q13617 (parent)
# chain: MSLKPRVVDFDETWNKLLTTIKAVVMLEYVERATWNDRFSDIYALCVAYPEPLGERLYTETKIFLENHVRHLHKRVLESEEQVLVMYHRYWEEYSKGADYMDCLYRYLNTQFIKKNKLTEADLQYGYGGVDMNEPLMEIGELALDMWRKLMVEPLQAILIRMLLREIKNDRGGEDPNQKVIHGVINSFVHVEQYKKKFPLKFYQEIFESPFLTETGEYYKQEASNLLQESNCSQYMEKVLGRLKDEEIRCRKYLHPSSYTKVIHECQQRMVADHLQFLHAECHNIIRQEKKNDMANMYVLLRAVSTGLPHMIQELQNHIHDEGLRATSNLTQENMPTLFVESVLEVHGKFVQLINTVLNGDQHFMSALDKALTSVVNYREPKSVCKAPELLAKYCDNLLKKSAKGMTENEVEDRLTSFITVFKYIDDKDVFQKFYARMLAKRLIHGLSMSMDSEEAMINKLKQACGYEFTSKLHRMYTDMSVSADLNNKFNNFIKNQDTVIDLGISFQIYVLQAGAWPLTQAPSSTFAIPQELEKSVQMFELFYSQHFSGRKLTWLHYLCTGEVKMNYLGKPYVAMVTTYQMAVLLAFNNSETVSYKELQDSTQMNEKELTKTIKSLLDVKMINHDSEKEDIDAESSFSLNMNFSSKRTKFKITTSMQKDTPQEMEQTRSAVDEDRKMYLQAAIVRIMKARKVLRHNALIQEVISQSRARFNPSISMIKKCIEVLIDKQYIERSQASADEYSYVA
# partner: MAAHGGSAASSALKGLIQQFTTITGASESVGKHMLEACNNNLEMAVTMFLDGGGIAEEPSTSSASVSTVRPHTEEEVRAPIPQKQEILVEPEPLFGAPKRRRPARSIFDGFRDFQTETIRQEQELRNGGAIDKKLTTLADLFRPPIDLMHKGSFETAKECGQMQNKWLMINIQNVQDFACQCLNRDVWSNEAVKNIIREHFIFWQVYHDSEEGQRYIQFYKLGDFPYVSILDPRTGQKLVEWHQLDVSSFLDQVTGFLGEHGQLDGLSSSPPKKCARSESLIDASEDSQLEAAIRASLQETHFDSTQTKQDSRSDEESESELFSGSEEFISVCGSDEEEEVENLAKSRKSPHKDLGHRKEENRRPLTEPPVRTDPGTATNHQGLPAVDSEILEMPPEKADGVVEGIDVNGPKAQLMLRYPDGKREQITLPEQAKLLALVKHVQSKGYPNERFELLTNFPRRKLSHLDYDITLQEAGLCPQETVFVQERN
# B2: UBX domain-containing protein 5 (Saccharomyces cerevisiae), Q06682 (parent)
# chain: MSEGKVDEFMAITGADDAAIATQFIEMADGNLNTAISLFFENGGAALLSSNNTPTPSNSTPMAPTSVDSDADAQLAERLQREAYQQQQPDQDYVRPPDEARHEVLTETSGFPISYGGIGGRFEPLHRVNDMFDEGRPESIFNQRLDDTNTNTYINDNSSDSLDSEEENDDDEYEYVEEPVIELDEDGNIKEYTKLVRKPKTISKEQKLALLFRPPFSIMSKLDLDAAKQKARAKQKWIMINIQDSGIFQCQALNRDLWSSRPVKTIIKENFVFLQYQYESRNAQPYLQFYHLNNKDDLPHIAILDPITGERVKQWNRVVPIPEQFISEINEFLASFSLDPKVPNPTVNEPLPKVDPTTLTEEQQMELAIKESLNNNSSKSNQEEVPSTGEEQKRVQEPDPFSTIEARVHPEPPNKPGITTRIQIRTGDGSRLVRRFNALEDTVRTIYEVIKTEMDGFADSRFTLNDHQREDLIDKLNMTIADAGLKNSSLLLEKLDPEIE
# partner: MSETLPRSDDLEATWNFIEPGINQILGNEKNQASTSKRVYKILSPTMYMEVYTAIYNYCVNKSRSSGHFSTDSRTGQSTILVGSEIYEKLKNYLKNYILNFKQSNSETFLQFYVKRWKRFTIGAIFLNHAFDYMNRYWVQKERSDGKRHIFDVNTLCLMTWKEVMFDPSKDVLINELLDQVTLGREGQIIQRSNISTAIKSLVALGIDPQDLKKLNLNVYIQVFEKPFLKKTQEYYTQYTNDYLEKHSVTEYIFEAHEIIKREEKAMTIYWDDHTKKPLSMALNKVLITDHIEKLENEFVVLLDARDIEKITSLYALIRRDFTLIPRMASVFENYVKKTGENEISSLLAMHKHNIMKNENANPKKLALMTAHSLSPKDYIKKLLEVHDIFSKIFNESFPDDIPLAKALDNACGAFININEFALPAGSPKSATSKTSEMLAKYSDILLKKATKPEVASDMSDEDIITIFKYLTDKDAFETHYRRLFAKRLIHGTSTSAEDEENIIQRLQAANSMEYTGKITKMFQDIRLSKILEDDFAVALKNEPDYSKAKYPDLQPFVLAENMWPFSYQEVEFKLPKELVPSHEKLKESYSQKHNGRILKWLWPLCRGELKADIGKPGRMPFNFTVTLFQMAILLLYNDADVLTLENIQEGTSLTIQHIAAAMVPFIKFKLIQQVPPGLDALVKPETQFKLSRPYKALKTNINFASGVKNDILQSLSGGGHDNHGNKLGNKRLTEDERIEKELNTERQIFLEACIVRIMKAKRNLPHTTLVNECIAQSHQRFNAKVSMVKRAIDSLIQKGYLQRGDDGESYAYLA
# B3: UBX domain-containing protein 7 (Homo sapiens), O94888 (parent)
# chain: B1 partner
# Variants of: B1
# Conditions: with ubxn7_human UBXN7, O94888
row,Variant,effect of a mutation on the interaction
1,K689R,disrupting interaction strength

# Variants of: B2
# Conditions: with cdc53_yeast CDC53, Q12018
row,Variant,effect of a mutation on the interaction
1,A368Q,disrupting interaction strength
2,E361R;M365E;A368Q,disrupting interaction strength

# Variants of: B3
# Conditions: with cul2_human CUL2, Q13617
row,Variant,effect of a mutation on the interaction
1,E286R;L290E;A293Q,disrupting interaction strength
2,A293Q,disrupting interaction strength
